Results reported in publication PMC5070119.
Blank lines part the entries; values can stand above or below the substance they belong to.

Key:
[1] = molecular target: cytosolic purine 5'-nucleotidase (cN-II), C-terminally truncated wild type (human) (UniProt P49902); test: SEC; Superdex 200 10/300 GL, 50 mM sodium phosphate pH 7.4, 100 mM NaCl, 2 mM TCEP; 200 ul of 0.5 mg/ml protein; calibrated with high molecular weight standards
[2] = molecular target: cytosolic purine 5'-nucleotidase (cN-II), C-terminally truncated wild type (human) (UniProt P49902); test: SAXS; truncated proteins 0.25 to 2 mg/ml in 50 mM sodium phosphate pH 7.4, 100 mM NaCl, 2 mM TCEP, 5 % glycerol; BM29 beamline ESRF; Guinier approximation, P(r), Porod volume
[3] = molecular target: cytosolic purine 5'-nucleotidase (cN-II) L375F, C-terminally truncated (human) (UniProt P49902); test: SEC; Superdex 200 10/300 GL, 50 mM sodium phosphate pH 7.4, 100 mM NaCl, 2 mM TCEP; 200 ul of 0.5 mg/ml protein; calibrated with high molecular weight standards
[4] = molecular target: cytosolic purine 5'-nucleotidase (cN-II) L375F, C-terminally truncated (human) (UniProt P49902); test: SAXS; truncated proteins 0.25 to 2 mg/ml in 50 mM sodium phosphate pH 7.4, 100 mM NaCl, 2 mM TCEP, 5 % glycerol; BM29 beamline ESRF; Guinier approximation, P(r), Porod volume
[5] = molecular target: cytosolic purine 5'-nucleotidase (cN-II) R238W, C-terminally truncated (human) (UniProt P49902); test: SEC; Superdex 200 10/300 GL, 50 mM sodium phosphate pH 7.4, 100 mM NaCl, 2 mM TCEP; 200 ul of 0.5 mg/ml protein; calibrated with high molecular weight standards
[6] = molecular target: cytosolic purine 5'-nucleotidase (cN-II) R238W, C-terminally truncated (human) (UniProt P49902); test: SAXS; truncated proteins 0.25 to 2 mg/ml in 50 mM sodium phosphate pH 7.4, 100 mM NaCl, 2 mM TCEP, 5 % glycerol; BM29 beamline ESRF; Guinier approximation, P(r), Porod volume
[7] = molecular target: cytosolic purine 5'-nucleotidase (cN-II) R367Q, C-terminally truncated (human) (UniProt P49902); test: SEC; Superdex 200 10/300 GL, 50 mM sodium phosphate pH 7.4, 100 mM NaCl, 2 mM TCEP; 200 ul of 0.5 mg/ml protein; calibrated with high molecular weight standards
[8] = molecular target: cytosolic purine 5'-nucleotidase (cN-II) R367Q, C-terminally truncated (human) (UniProt P49902); test: SAXS; truncated proteins 0.25 to 2 mg/ml in 50 mM sodium phosphate pH 7.4, 100 mM NaCl, 2 mM TCEP, 5 % glycerol; BM29 beamline ESRF; Guinier approximation, P(r), Porod volume

stoichiometry N [1]: 4
stoichiometry N [2]: 4
Substance: cytosolic purine 5'-nucleotidase (cN-II), C-terminally truncated wild type (from UniProt P49902 1-536) (enzyme)

stoichiometry N [3]: 4
stoichiometry N [4]: 4
Substance: cytosolic purine 5'-nucleotidase (cN-II) L375F, C-terminally truncated (from UniProt P49902 1-536) (enzyme)

stoichiometry N [5]: 4
stoichiometry N [6]: 4
Substance: cytosolic purine 5'-nucleotidase (cN-II) R238W, C-terminally truncated (from UniProt P49902 1-536) (enzyme)

stoichiometry N [7]: 4
stoichiometry N [8]: 4
Substance: cytosolic purine 5'-nucleotidase (cN-II) R367Q, C-terminally truncated (from UniProt P49902 1-536) (enzyme)
